The experiment concerns the target human ILT3 on cells (human) (UniProt Q8NHJ6). Nature of the experiment: flow cytometry on THP1 cells, enumeration of the ILT3 antigen density with clone ZM4.1; unit not given.

human ILT3 on cells (human), sequence (Q8NHJ6 22-448 D223G/Q414R): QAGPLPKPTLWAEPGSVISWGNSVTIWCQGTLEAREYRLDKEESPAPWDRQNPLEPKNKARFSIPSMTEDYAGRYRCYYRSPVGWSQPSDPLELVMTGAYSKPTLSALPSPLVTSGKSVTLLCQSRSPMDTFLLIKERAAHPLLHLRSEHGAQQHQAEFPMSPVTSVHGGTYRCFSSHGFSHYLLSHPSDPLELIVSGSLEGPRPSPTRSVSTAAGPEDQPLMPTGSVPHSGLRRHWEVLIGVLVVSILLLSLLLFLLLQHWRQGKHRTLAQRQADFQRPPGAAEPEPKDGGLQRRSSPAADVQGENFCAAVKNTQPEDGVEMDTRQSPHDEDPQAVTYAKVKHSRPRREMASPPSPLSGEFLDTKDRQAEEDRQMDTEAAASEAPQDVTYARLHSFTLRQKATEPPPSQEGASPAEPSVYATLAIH

For “mouse anti-ILT3 monoclonal antibody, clone ZM4.1”, the Ag density came to 147000.

(Values after US20220227863A1.)
